# Test results as given in US20170258870.
# Tested on: Helix 5 TAT peptide
substance,measurement,value
recombinant GC mutant N370S,GC enzyme activity (4-MU substrate),the helix 5 TAT-peptide led to a four-fold increase in the activity of the N370S mutant
